The record followed here is patent publication US20060045884A1 (BOARD OF REGENTS, published 2006).

One assay addresses T1, HLA-A2.1 (HLA-A*0201) with β2-microglobulin on the surface of T2 cells (human).
T1 construct: also called surface HLA-A2.1 on T2
Briefly: T2 cell HLA-A2.1 stabilisation, flow cytometry (FIG. 34). Background: A flow cytometer gives signals particle by particle.
With KLLLALAGL [MY2 peptide (myeloperoxidase derived)], the binding result is listed as “binds”.

As to SLWRRPFNV [MY1 peptide (myeloperoxidase derived)], the binding result is “binds”. Same read-out and setting: in the case of RLFEQVMRI [MY4 peptide (myeloperoxidase derived)] it was “binds”; in that of LIQPFMFRL [MY5 peptide (myeloperoxidase derived)], “binds”; in that of LLSYFKQPV [MY3 peptide (myeloperoxidase derived)], “binds”.

In the next assay the target is T1, HLA-A2.1 (HLA-A*0201) with …. The assay is described as follows: peptide-binding assay, HLA-A2 stabilisation on T2 cells; reference peptide PR1.
For the molecule ILLDWLMEV (also called cyclin E1 peptide) [CCNE1144-152 (cyclin E1 derived nonameric peptide)], the “FI ratio to PR1 (stabilisation of HLA-A2 on T2 cells)” value turned out to be 1.01 ratio. ILLDWLLEV (also called cyclin E2 peptide) [CCNE2144-152 (cyclin E2 derived nonameric peptide)]: the “FI ratio to PR1 (stabilisation of HLA-A2 on T2 cells)” value came out at 1.19 ratio.

Another assay concerns the target T2, HLA-A2.1 heavy chain with I125-labeled β2-microglobulin (heterotrimer dissociation assay) (human, I^125-labeled).
T2 construct: The complex is isolated by HPLC gel filtration; T1/2 is the half-time of β2m dissociation from the complex that holds the tested peptide; also called heterotrimer complex of the HLA-A2.1 heavy chain, peptide, and β2-microglobulin
Briefly: dissociation of 125I-β2-microglobulin from the HLA-A2.1/peptide/β2m heterotrimer, HPLC gel filtration.
The molecule VLQELNVTV (Synthetic peptide, at least 95% pure) [PR1 peptide (proteinase 3 aa 169-177)] yielded a T1/2 of 24.3 h.

For RLFPDFFTRV (Synthetic peptide) [PR2 peptide (proteinase 3 derived)], the T1/2 worked out at 2.33 h.

In a further assay the target is T2, HLA-A2.1 heavy chain with I125-labeled …. The assay is described as follows: 125I-β2-microglobulin dissociation from the heterotrimer, gel filtration.
Turning to KLLLALAGL [MY2 peptide (myeloperoxidase derived)], the binding result is “binds”.

For SLWRRPFNV [MY1 peptide (myeloperoxidase derived)], the binding result is given as “binds”. Still for that read-out and setting: in the case of RLFEQVMRI [MY4 peptide (myeloperoxidase derived)] it was “binds”. The same measure, in the same setting: the entry for LIQPFMFRL [MY5 peptide (myeloperoxidase derived)] is “binds”.

With LLSYFKQPV [MY3 peptide (myeloperoxidase derived)], the binding result was “binds”.
